{"source": "patent US20220324970A1", "about": "(Janssen / Centocor, published 2022)", "binders": {"B1": {"name": "VHH4-linker-mono-Fc protein (Fc fusion)", "chain": "EVQVVESGGGLVQAGGSLRLSCAVSGTSVSSNAMGWYRQAPGKQREWVGFIDRIATTTIATSVKGRFAITRDNAKNTVYLQMSGLKPEDTAVYYCNHPLTARWGQGTQVTVSSEPKTPKPQPQPQLQPQPNPTTESKSPKSPAPELLGGPSVFLFPPKPKDTLMISRTPEVTCVVVDVSHEDPEVKFNWYVDGVEVHNAKTKPREEQYNSTYRVVSVLTVLHQDWLNGKEYKCKVSNKALPAPIEKTISKAKGQPREPQVYTKPPSREEMTKNQVSLSCLVKGFYPSDIAVEWESNGQPENNYKTTVPVLDSDGSFRLASYLTVDKSRWQQGNVFSCSVMHEALHNHYTQKSLSLSPGK", "notes": "also called VHH4-mono-Fc; hpIgR_073"}, "B2": {"name": "VHH6-linker-mono-Fc protein (Fc fusion)", "chain": "EVQLVESGGGLVQAGGSLRLSCAVSGSSVSSDAMGWYRQAPGNQRAWVAFISGGGTTTYADSVKGRFTISRDNTKNTVYLHMNSLKPEDTAVYYCNHPLTSRWGQGTQVTVSSEPKTPKPQPQPQLQPQPNPTTESKSPKSPAPELLGGPSVFLFPPKPKDTLMISRTPEVTCVVVDVSHEDPEVKFNWYVDGVEVHNAKTKPREEQYNSTYRVVSVLTVLHQDWLNGKEYKCKVSNKALPAPIEKTISKAKGQPREPQVYTKPPSREEMTKNQVSLSCLVKGFYPSDIAVEWESNGQPENNYKTTVPVLDSDGSFRLASYLTVDKSRWQQGNVFSCSVMHEALHNHYTQKSLSLSPGK", "notes": "made in CHO cells; also called VHH6-mono-Fc; hpIgR_181"}}, "key": {"[1]": {"target": "T1, human pIgR, full-length, on cells (human, UniProt P01833 19-764)", "T1 sequence (P01833 19-764)": "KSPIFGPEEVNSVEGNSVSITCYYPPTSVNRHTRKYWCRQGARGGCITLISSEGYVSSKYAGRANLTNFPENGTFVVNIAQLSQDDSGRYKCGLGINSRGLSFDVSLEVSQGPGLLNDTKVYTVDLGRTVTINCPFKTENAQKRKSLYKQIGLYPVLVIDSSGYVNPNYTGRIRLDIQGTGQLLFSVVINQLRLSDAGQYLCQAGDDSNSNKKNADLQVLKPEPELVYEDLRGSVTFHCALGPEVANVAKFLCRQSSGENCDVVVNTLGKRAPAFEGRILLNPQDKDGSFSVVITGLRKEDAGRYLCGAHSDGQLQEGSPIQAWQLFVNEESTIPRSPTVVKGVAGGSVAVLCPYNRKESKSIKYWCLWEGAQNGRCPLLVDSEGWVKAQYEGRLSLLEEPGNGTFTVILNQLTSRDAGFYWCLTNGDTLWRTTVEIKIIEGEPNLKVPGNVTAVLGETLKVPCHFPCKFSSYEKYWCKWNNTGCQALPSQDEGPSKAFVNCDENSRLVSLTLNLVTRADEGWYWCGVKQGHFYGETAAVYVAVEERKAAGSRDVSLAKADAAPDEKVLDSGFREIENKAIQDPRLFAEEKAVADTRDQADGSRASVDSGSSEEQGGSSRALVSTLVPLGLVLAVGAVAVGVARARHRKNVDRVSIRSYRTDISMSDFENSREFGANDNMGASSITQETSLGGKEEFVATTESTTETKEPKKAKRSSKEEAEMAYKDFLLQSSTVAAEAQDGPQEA", "assay": "cell-based or functional assay"}, "[2]": {"target": "T1, human pIgR, full-length, on cells", "assay": "cell-based or functional assay", "remark": "listed apart in the source"}, "[3]": {"target": "T1, human pIgR, full-length, on cells", "assay": "cell-based or functional assay", "remark": "listed apart in the source"}, "[4]": {"target": "T1, human pIgR, full-length, on cells", "assay": "flow cytometry on MDCK-hpIgR cells"}, "[5]": {"target": "T2, human pIgR extracellular domain (ECD) (human, UniProt P01833 19-638)", "T2 construct": "also called hpIgR ECD", "T2 sequence (P01833 other isoform, or with tags, fused parts or gaps)": "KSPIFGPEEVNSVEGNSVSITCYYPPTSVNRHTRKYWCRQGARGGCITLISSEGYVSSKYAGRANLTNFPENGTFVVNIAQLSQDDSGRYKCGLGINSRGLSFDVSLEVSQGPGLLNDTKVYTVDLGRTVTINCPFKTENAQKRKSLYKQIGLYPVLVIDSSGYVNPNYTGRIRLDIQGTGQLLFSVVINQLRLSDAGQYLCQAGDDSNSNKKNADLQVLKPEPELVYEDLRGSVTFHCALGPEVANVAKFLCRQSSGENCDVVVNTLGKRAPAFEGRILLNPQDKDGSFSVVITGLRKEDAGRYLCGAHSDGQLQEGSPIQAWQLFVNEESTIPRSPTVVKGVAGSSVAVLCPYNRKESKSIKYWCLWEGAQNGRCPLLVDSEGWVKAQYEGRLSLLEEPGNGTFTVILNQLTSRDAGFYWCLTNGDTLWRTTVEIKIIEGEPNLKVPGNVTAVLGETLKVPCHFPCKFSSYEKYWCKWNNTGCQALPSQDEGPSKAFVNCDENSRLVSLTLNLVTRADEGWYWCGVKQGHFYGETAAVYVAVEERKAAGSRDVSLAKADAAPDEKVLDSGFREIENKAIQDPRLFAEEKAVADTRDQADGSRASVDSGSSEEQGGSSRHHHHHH", "assay": "BLI; summary table, repeats Table 1"}, "[6]": {"target": "T2, human pIgR extracellular domain (ECD)", "assay": "BLI; summary table, repeats Table 1", "remark": "listed apart in the source"}, "[7]": {"target": "T2, human pIgR extracellular domain (ECD)", "assay": "BLI (Octet), VHH-mono-Fc and hpIgR ectodomain"}, "[8]": {"target": "T2, human pIgR extracellular domain (ECD)", "assay": "ECL (MSD), hpIgR-ECD coated, anti-Fc detection"}, "[9]": {"target": "T2, human pIgR extracellular domain (ECD)", "assay": "ECL (MSD), hpIgR-ECD coated, anti-VHH detection"}, "[10]": {"target": "T2, human pIgR extracellular domain (ECD)", "assay": "ECL (MSD), anti-VHH detection against anti-Fc detection"}, "hpIgR_D2-D3 [11]": {"target": "T3, hpIgR_D2-D3", "T3 construct": "HIS-tagged construct from HEK293 cells; also called human pIgR extracellular domain 2-domain 3 (D2-D3); hD2-D3", "T3 HIS-tagged domain construct": "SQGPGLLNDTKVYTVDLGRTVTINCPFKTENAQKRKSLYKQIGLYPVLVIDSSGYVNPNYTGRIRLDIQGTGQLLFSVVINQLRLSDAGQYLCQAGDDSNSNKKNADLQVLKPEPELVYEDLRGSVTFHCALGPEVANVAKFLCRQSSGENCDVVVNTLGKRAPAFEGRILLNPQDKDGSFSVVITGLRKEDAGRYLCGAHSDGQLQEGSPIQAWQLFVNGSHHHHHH", "assay": "BLI (Octet RED384), 1:1 fit, 25 C, PBS", "protocol": "(§1) Bio-layer Interferometry was performed as follows. […] Data were collected with Octet Data Acquisition version 7.1.0.87 (ForteBio) and analyzed using Octet Data Analysis version 7.1 (ForteBio). To measure binding kinetics between VHH-mono-Fc molecules and HIS-tagged pIgR proteins, VHH-mono-Fc was immobilized on amine-reactive generation-2 (ARG2) biosensors according to manufacturer's instructions and increasing concentrations of pIgR proteins were exposed to sensor-immobilized VHH. In some cases, HIS-tagged pIgR proteins were immobilized on anti-HIS biosensors and exposed to increasing concentrations of VHH-mono-Fc molecules. Association and dissociation rates were measured by the shift in wavelength (nm). […] All reactions were performed at 25° C. in PBS."}, "[12]": {"target": "T2, human pIgR extracellular domain (ECD)", "assay": "BLI (Octet RED384), 1:1 fit, 25 C, PBS", "protocol": "as §1"}, "[13]": {"target": "T4, human pIgR extracellular domain 1-domain 2 (D1-D2) (human, UniProt P01833 19-240)", "T4 construct": "HIS-tagged construct made in HEK293 cells", "T4 sequence (P01833 other isoform, or with tags, fused parts or gaps limits assumed)": "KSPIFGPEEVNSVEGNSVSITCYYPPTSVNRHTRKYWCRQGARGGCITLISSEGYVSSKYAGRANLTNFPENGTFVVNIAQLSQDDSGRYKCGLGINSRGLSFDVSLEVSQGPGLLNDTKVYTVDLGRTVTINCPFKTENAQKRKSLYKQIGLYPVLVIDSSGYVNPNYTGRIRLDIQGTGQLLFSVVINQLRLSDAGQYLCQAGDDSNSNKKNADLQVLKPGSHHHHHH", "assay": "BLI (Octet RED384), 1:1 fit, 25 C, PBS", "protocol": "as §1"}, "[14]": {"target": "T5, human pIgR extracellular domain 2 (D2) (human, UniProt P01833 128-242)", "T5 construct": "HIS-tagged construct made in HEK293 cells; also called hpIgR domain 2", "assay": "BLI (Octet RED384), 1:1 fit, 25 C, PBS", "protocol": "as §1"}, "[15]": {"target": "T1, human pIgR, full-length, on cells", "assay": "flow cytometry on MDCK-hpIgR cells; summary table, repeats Table 1", "protocol": "Flow Cytometry was performed as follows. To test whether VHH-mono-Fc molecules recognize cell-surface hpIgR, Madin-Darby canine kidney (MDCK) cells engineered to express full-length hpIgR were used. Cells were cultured in Dulbecco's modified Eagle's medium containing 10% fetal calf serum at 37° C. with 5% CO₂. Cells were split into equal fractions (≈70,000 cells) and incubated with increasing concentrations of VHH-mono-Fc molecules for 30 min at 4 C. […] Cells were washed twice with cold staining buffer, resuspended in running buffer and analyzed with an iQue Screener (IntelliCyt Corporation). Binding was assessed by RL1 (A647) Geomeans from the live cell population and EC50 was calculated by fitting log VHH concentration versus MFI in Prism (Graphpad)."}, "[16]": {"target": "T1, human pIgR, full-length, on cells", "assay": "flow cytometry on MDCK-hpIgR cells; summary table, repeats Table 1", "remark": "listed apart in the source"}, "hpIgR_D2-D3 [17]": {"target": "T3, hpIgR_D2-D3", "assay": "BLI (Octet RED384), 1:1 fit, 25 C, PBS; column kdis"}, "[18]": {"target": "T2, human pIgR extracellular domain (ECD)", "assay": "BLI (Octet RED384), 1:1 fit, 25 C, PBS; column kdis"}, "[19]": {"target": "T4, human pIgR extracellular domain …", "assay": "BLI (Octet RED384), 1:1 fit, 25 C, PBS; column kdis"}, "[20]": {"target": "T5, human pIgR extracellular domain 2 (D2)", "assay": "BLI (Octet RED384), 1:1 fit, 25 C, PBS; column kdis"}, "hpIgR_D3": {"target": "T6, hpIgR_D3", "T6 construct": "HIS-tagged construct from HEK293 cells; also called human pIgR extracellular domain 3 (D3); hD3", "T6 HIS-tagged domain construct": "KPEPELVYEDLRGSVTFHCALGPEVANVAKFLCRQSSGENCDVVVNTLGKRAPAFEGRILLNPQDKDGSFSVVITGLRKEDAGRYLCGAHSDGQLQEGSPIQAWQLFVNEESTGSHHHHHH", "assay": "ECL (MSD) heat map, HIS-tagged construct captured via anti-HIS, anti-human-Fc detection", "protocol": "(§2) A meso-scale discovery (MSD) platform was used for conducting epitope mapping and epitope burial studies. To test the binding of VHH-mono-Fc molecules to purified pIgR protein constructs, Streptavidin MSD plates were coated with a biotinylated anti-HIS antibody (2 μg/ml in PBS) for 1 hour at RT with 1000 rpm, washed 3× with PBT (PBS+0.1% Tween-20), incubated with blocking buffer for 1 hour at RT, incubated with His-tagged pIgR proteins (10 μg/ml in PBS) for 2 hours at RT with 1000 rpm, washed 3× with PBT, incubated with VHH-mono-Fc molecules (100 μg/ml in PBS) for 2 hours at RT with 1000 rpm, washed 3× with PBT, incubated with ruthenylated-anti-human-Fc antibody (2 μg/ml in PBS) for 1 hour at RT with 1000 rpm, washed 3× with PBT and read plates in 40 ul reading buffer using the MSD imager. ECLU values were plotted as a heatmap.\n(§3) Binding of VHH-mFc molecules were tested to immobilized pIgR constructs by the electrochemiluminescence method."}, "[21]": {"target": "T7, human pIgR extracellular domain 1 (D1) (human, UniProt P01833 19-127)", "T7 construct": "HIS-tagged construct made in HEK293 cells; also called hpIgR domain-1", "T7 sequence (P01833 other isoform, or with tags, fused parts or gaps limits assumed)": "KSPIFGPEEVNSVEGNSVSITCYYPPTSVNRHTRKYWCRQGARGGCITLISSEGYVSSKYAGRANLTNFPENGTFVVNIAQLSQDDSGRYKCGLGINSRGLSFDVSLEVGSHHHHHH", "assay": "ECL (MSD) heat map, HIS-tagged construct captured via anti-HIS, anti-human-Fc detection", "protocol": "as §2, §3"}, "[22]": {"target": "T8, human pIgR extracellular domain 5 (D5) (human, UniProt P01833 460-565)", "T8 construct": "HIS-tagged construct made in HEK293 cells; also called hpIgR domain 5", "assay": "ECL (MSD) heat map, HIS-tagged construct captured via anti-HIS, anti-human-Fc detection", "protocol": "as §2, §3"}, "[23]": {"target": "T9, human pIgR extracellular domain 4-domain 5 (D4-D5) (human, UniProt P01833 350-565)", "T9 construct": "HIS-tagged construct made in HEK293 cells; also called hpIgR domains 4-5", "T9 chain": "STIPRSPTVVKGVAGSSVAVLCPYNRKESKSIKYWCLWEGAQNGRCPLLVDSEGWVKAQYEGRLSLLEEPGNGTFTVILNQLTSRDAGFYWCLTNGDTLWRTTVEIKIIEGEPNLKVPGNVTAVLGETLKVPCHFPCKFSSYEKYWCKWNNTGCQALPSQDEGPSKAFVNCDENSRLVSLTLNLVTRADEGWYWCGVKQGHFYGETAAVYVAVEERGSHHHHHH", "assay": "ECL (MSD) heat map, HIS-tagged construct captured via anti-HIS, anti-human-Fc detection"}}}
{"binder": "B1", "values": [{"measurement": "increase in their apical concentration relative to control VHH (MDCK-hpIgR monolayers)", "setting": "[1]", "value": "> 10", "unit": "fold"}, {"measurement": "Transcytosis (Fold Incr.)", "setting": "[2]", "value": 12.6, "unit": "fold"}, {"measurement": "For. Trans. (Fold Incr.)", "setting": "[3]", "value": 15.1, "unit": "fold"}, {"measurement": "Rev. Trans (Fold Incr.)", "setting": "[3]", "value": 8, "unit": "fold"}, {"measurement": "EC50", "setting": "[4]", "value": 32.9, "unit": "nM"}, {"measurement": "Kd", "setting": "[5]", "value": 22, "unit": "nM"}, {"measurement": "Kd", "setting": "[6]", "value": 22, "unit": "nM"}, {"measurement": "Kd", "setting": "[7]", "value": 22, "unit": "nM"}, {"measurement": "EC50", "setting": "[8]", "value": 1.1, "unit": "nM"}, {"measurement": "EC50", "setting": "[9]", "value": 206, "unit": "nM"}, {"measurement": "Fold change in EC50", "setting": "[10]", "value": 180, "unit": "fold"}, {"measurement": "Kd", "setting": "hpIgR_D2-D3 [11]", "value": 86.1, "unit": "nM"}, {"measurement": "kon", "setting": "hpIgR_D2-D3 [11]", "value": 14000, "unit": "M⁻¹ s⁻¹"}, {"measurement": "Kd", "setting": "[12]", "value": 76, "unit": "nM"}, {"measurement": "kon", "setting": "[12]", "value": 14400, "unit": "M⁻¹ s⁻¹"}, {"measurement": "Kd", "setting": "[13]", "value": 77.3, "unit": "nM"}, {"measurement": "kon", "setting": "[13]", "value": 19200, "unit": "M⁻¹ s⁻¹"}, {"measurement": "Kd", "setting": "[14]", "value": 83.8, "unit": "nM"}, {"measurement": "kon", "setting": "[14]", "value": 19100, "unit": "M⁻¹ s⁻¹"}, {"measurement": "EC50", "setting": "[15]", "value": 32.9, "unit": "nM"}, {"measurement": "EC50", "setting": "[16]", "value": 32.9, "unit": "nM"}, {"measurement": "koff", "setting": "hpIgR_D2-D3 [17]", "value": 0.0012, "unit": "s⁻¹"}, {"measurement": "koff", "setting": "[18]", "value": 0.0011, "unit": "s⁻¹"}, {"measurement": "koff", "setting": "[19]", "value": 0.00149, "unit": "s⁻¹"}, {"measurement": "koff", "setting": "[20]", "value": 0.0016, "unit": "s⁻¹"}, {"measurement": "binding result", "setting": "hpIgR_D3", "value": "no binding (tested: 100 ug/ml (single concentration))"}, {"measurement": "binding result", "setting": "[21]", "value": "no binding (tested: 100 ug/ml (single concentration))"}, {"measurement": "binding result", "setting": "[22]", "value": "no binding (tested: 100 ug/ml (single concentration))"}, {"measurement": "binding result", "setting": "[23]", "value": "no binding (tested: 100 ug/ml (single concentration))"}]}
{"binder": "B2", "values": [{"measurement": "increase in their apical concentration relative to control VHH (MDCK-hpIgR monolayers)", "setting": "[1]", "value": "> 10", "unit": "fold"}, {"measurement": "Transcytosis (Fold Incr.)", "setting": "[2]", "value": 30.7, "unit": "fold"}, {"measurement": "For. Trans. (Fold Incr.)", "setting": "[3]", "value": 25.6, "unit": "fold"}, {"measurement": "Rev. Trans (Fold Incr.)", "setting": "[3]", "value": 14.6, "unit": "fold"}, {"measurement": "EC50", "setting": "[4]", "value": 11.5, "unit": "nM"}, {"measurement": "Kd", "setting": "[5]", "value": 27, "unit": "nM"}, {"measurement": "Kd", "setting": "[6]", "value": 27, "unit": "nM"}, {"measurement": "Kd", "setting": "[7]", "value": 27, "unit": "nM"}, {"measurement": "EC50", "setting": "[8]", "value": 3.9, "unit": "nM"}, {"measurement": "EC50", "setting": "[9]", "value": 4190, "unit": "nM"}, {"measurement": "Fold change in EC50", "setting": "[10]", "value": 1060, "unit": "fold"}, {"measurement": "Kd", "setting": "hpIgR_D2-D3 [11]", "value": 71.5, "unit": "nM"}, {"measurement": "kon", "setting": "hpIgR_D2-D3 [11]", "value": 34800, "unit": "M⁻¹ s⁻¹"}, {"measurement": "Kd", "setting": "[12]", "value": 48.9, "unit": "nM"}, {"measurement": "kon", "setting": "[12]", "value": 44700, "unit": "M⁻¹ s⁻¹"}, {"measurement": "Kd", "setting": "[13]", "value": 63.2, "unit": "nM"}, {"measurement": "kon", "setting": "[13]", "value": 40000, "unit": "M⁻¹ s⁻¹"}, {"measurement": "Kd", "setting": "[14]", "value": 68.1, "unit": "nM"}, {"measurement": "kon", "setting": "[14]", "value": 39500, "unit": "M⁻¹ s⁻¹"}, {"measurement": "EC50", "setting": "[15]", "value": 11.5, "unit": "nM"}, {"measurement": "EC50", "setting": "[16]", "value": 11.5, "unit": "nM"}, {"measurement": "koff", "setting": "hpIgR_D2-D3 [17]", "value": 0.00249, "unit": "s⁻¹"}, {"measurement": "koff", "setting": "[18]", "value": 0.00219, "unit": "s⁻¹"}, {"measurement": "koff", "setting": "[19]", "value": 0.00253, "unit": "s⁻¹"}, {"measurement": "koff", "setting": "[20]", "value": 0.00269, "unit": "s⁻¹"}, {"measurement": "binding result", "setting": "hpIgR_D3", "value": "no binding (tested: 100 ug/ml (single concentration))"}, {"measurement": "binding result", "setting": "[21]", "value": "no binding (tested: 100 ug/ml (single concentration))"}, {"measurement": "binding result", "setting": "[22]", "value": "no binding (tested: 100 ug/ml (single concentration))"}, {"measurement": "binding result", "setting": "[23]", "value": "no binding (tested: 100 ug/ml (single concentration))"}]}
